Test results: patent publication US20160280788A1, “USE OF ANTIBODIES AGAINST ICAM-1 IN THE TREATMENT OF PATIENTS WITH RELAPSED CANCER” (BioInvent International AB, priority 2010, published 2016)
Read-outs that look alike come from different tables or passages of the source.

Assays:
[1] = system: EJM myeloma cells; assay: Subcutaneous myeloma xenograft, EJM; type: in vivo, scid mice; settings: 2 mg/kg twice weekly i.p.; vs control IgG1
Description: (§1) Antibody treatment with 2 mg/kg BI-505 or control IgG1 was started at Day 1 and was continued on a twice-weekly intraperitoneal dosing regimen. Mice were sacrificed when tumor sizes reached the ethical limit.

[2] = system: RPMI-8226 myeloma cells; assay: Subcutaneous myeloma xenograft, RPMI-8226; type: in vivo, scid mice; settings: 2 mg/kg twice weekly i.p.; vs control IgG1
Description: as §1

[3] = system: NCI-H929 myeloma cells; assay: Subcutaneous myeloma xenograft, NCI-H929; type: in vivo, scid mice; settings: 2 mg/kg twice weekly i.p.; vs control IgG1
Description: as §1

[4] = target: T1, mouse FcγRIV (Mus musculus, UniProt A0A0B4J1G0); assay: Biacore binding of BI-505 isotype variants to mouse FcγRIV
T1 construct: made in house; host or cells: HEK293E (transient)
T1 sequence (A0A0B4J1G0 21-249): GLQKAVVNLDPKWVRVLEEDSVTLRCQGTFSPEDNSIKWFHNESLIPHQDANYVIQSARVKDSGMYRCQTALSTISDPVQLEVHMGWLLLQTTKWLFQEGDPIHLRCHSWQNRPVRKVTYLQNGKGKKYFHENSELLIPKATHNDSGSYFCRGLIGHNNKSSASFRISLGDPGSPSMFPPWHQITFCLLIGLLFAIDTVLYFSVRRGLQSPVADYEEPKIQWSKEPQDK
Description: His-tagged human FcγRIIIa or mouse FcγRIV were expressed transient in adherent HEK293E cells, purified using Ni-NTA chromatography and characterized using SDS-PAGE and/or Biacore. Surface plasmon resonance (SPR) measurements were perfomed using a Biacore 3000 instrument. Goat α-human-F(ab)′2 F(ab)′2 fragment (Jackson laboratories) was immobilised with a CM-5 chip using a standard amine coupling protocol. IgG1 B11, Iga4 B11, or 297Q B11 were diluted to 15 and 60 μg/mL respectively and added to the surface at […] for 3 min. His tagged human FcγRIIIa or mouse FcγRIV were pre-incubated with an α-HIS antibody (R&D Systems) at a 2:1 molar ratio before addition to the chip surface, […], 1 min. After each cycle the surface was regenerated twice with glycine buffer pH 1.7.

[5] = system: B lymphoma cell line (CL-01); assay: ADCC of tumor cells with human NK effector cells; type: cell-based; settings: human Natural Killer effector cells
Excerpt: (§2) Buffy coats from human donors (ordered through Blodcentralen, Lund) were used to isolate peripheral blood mononuclear cells (PBMCs), and subsequently NK cells. Briefly, peripheral blood components were separated using Ficoll Paque PLUS (Amersham Biosciences, Sweden) in LeucoSep tubes (Greiner Bio-One). The PBMC fraction was removed and thoroughly washed in ice-cold DPBS (Invitrogen), before magnetic labeling and separation of the NK cell population using positive or negative NK cell isolation kits and MACS LS columns (Miltenyi Biotec). The purity of the obtained NK cell fractions was analyzed using flow cytometry, after staining with α-CD56 antibodies (BD Biosciences). Target cells were harvested, and incubated in medium with or without the respective antibodies (2 μg/mL) for 60 min on ice. Cells were thereafter washed and resuspended in cold medium before dispension into FACS tubes. Subsequently, isolated NK cells were diluted in ADCC medium and dispensed together with the respective antibody-coated target cells at varying effector/target cell ratios (40:1, 20:1, 5:1 and 1:1). All experiments were performed in triplicates. After completed incubation ToPo-Pro-3 dye and counting beads (Invitrogen) were added and cells were analyzed for membrane permeabilization using flow cytometry.

[6] = system: Daudi lymphoma cells; assay: Programmed cell death (PCD) assay, Daudi; type: cell-based, human
Description: Target cells were seeded in 96-well culture plates at a density of 2×10^6 cells/mL culture medium. […] The cells were then incubated for 16 hours at 37° C. in a humidified atmosphere of 5% CO2. The cells were harvested and stained for Annexin V-488/Propidium Iodide (Invitrogen, Sweden) and analysed using flow cytometer (FACS Calibur, BD Bioscience).

[7] = system: HUVEC, HMVEC or peripheral blood B cells; assay: ADCC of normal ICAM-1 expressing cells; type: cell-based
Excerpt: as §2

[8] = system: HUVEC, HMVEC or peripheral blood B cells; assay: CDC of normal ICAM-1 expressing cells; type: cell-based
Description: Target cells were harvested and incubated in RPMI medium with antibodies at 5 μg/mL or at titrated concentrations between 0.01-100 μg/mL for 60 min on ice. Cells were thereafter washed and resuspended in cold medium before dispension into flow cytometry tubes. Treatments were performed in triplicates. Human serum, normal or heat-inactivated, (Sigma, Sweden) was added to tubes and the samples were incubated for 2 h at 37° C. After completed incubation ToPo-Pro-3 was added at a final concentration of 0.3 μM and cells were analyzed for membrane permeabilization using flow cytometry.

[9] = system: F4/80 positive host effector cells in ARH-77 xenograft tissue; settings: compared to control IgG, untreated and rituximab treated mice
Description: (FIG. 7A) ARH-77 cells were injected subcutaneously into the left flank of SCID mice (n=8 per group). […] Statistical significance was calculated relative to control antibody treatment using Kruskal-Wallis Test (Nonparametric ANOVA) with Dunn's Multiple Comparisons Test. Statistical significance was considered for *p<0.05, **p<0.01, and ***p<0.001.

[10] = system: ARH-77 cells; assay: Subcutaneous scid/ARH-77 xenograft, prophylactic model
Description: Tumor cells were injected subcutaneously into the left flank of SCID mice. Mice received twice-weekly intraperitoneal injections with BI-505, control antibody or rituximab at doses of 20, 2 and/or 0.2 mg/kg commencing one day after tumor cell inoculation. There were 8 to 10 animals per treatment group. […] Statistical significance was calculated relative to control antibody treatment using Kruskal-Wallis Test (Nonparametric ANOVA) with Dunn's Multiple Comparisons Test (tumor volume) or the log-rank test (mouse survival) using Graphpad Instat or Prism software, respectively. Statistical significance was considered for *p<0.05, **p<0.01, and ***p<0.001.
Tumor cells were injected subcutaneously into the left flank of SCID mice. Mice received twice-weekly intraperitoneal injections with BI-505 at doses of 0.02-20 mg/kg commencing day after tumor cell inoculation. There were 8-10 animals per treatment group. […] Statistical significance was calculated relative to control antibody treatment using Kruskal-Wallis Test (Nonparametric ANOVA) with Dunn's Multiple Comparisons Test (tumor volume) or the log-rank test (mouse survival) using Graphpad Instat or Prism software, respectively. Statistical significance was considered for *p<0.05, **p<0.01, and ***p<0.001. Graphs illustrate representative experiments out of several performed.
(FIG. 7A) ARH-77 cells were injected subcutaneously into the left flank of SCID mice (n=8 per group). Mice were treated with the different BI-505 isotypes twice weekly. […] Statistical significance was calculated relative to control antibody treatment using Kruskal-Wallis Test (Nonparametric ANOVA) with Dunn's Multiple Comparisons Test. Statistical significance was considered for *p<0.05, **p<0.01, and ***p<0.001.
Mice were anaesthetized with a mixture of sevofluran and oxygen prior to myeloma cell inoculation and 1-5×10^6 myeloma cells were then subcutaneously injected in a volume of 100 μl into the left flank.

B1: IgG B11: fully human ICAM-1 antibody isolated from the n-CoDeR library; VH/VL sequences in FIG. 15 (SEQ ID NOs 8, 10) (antibody, V domains shown)
VH: EVQLLESGGGLVQPGGSLRLSCAASGFTFSNAWMSWVRQAPGKGLEWVAFIWYDGSNKYYADSVKGRFTISRDNSKNTLYLQMNSLRAEDTAVYYCARYSGWYFDYWGQGTLVTVSS
VL: QSVLTQPPSASGTPGQRVTISCTGSSSNIGAGYDVHWYQQLPGTAPKLLIYDNNNRPSGVPDRFSGSKSGTSASLAISGLRSEDEADYYCQSYDSSLSAWLFGGGTKLTVLG
modifications: B11 VH region; B11 VL region
For B1, the “reduction of myeloma tumor growth” value [1] was 98%, the “reduction of myeloma tumor growth” value [2] was 96% and the “reduction of myeloma tumor growth” value [3] was 99%. The “binding to murine FcγRIV” value [4] was “strong binding”, the “ADCC of target tumor cells” value [5] was “mediated ADCC” and the PCD induction ([6]; antibody immobilised by either of two coating protocols) was “induced programmed cell death”. The PCD induction ([6]; titrated antibody with cross-linking, 16 hours) was “dose dependent PCD-induction”, the “ADCC of normal cells” value [7] was “did not confer ADCC” and the “CDC of normal cells” value [8] was “did not confer ADCC or CDC”. For the same molecule, the “influx of F4/80+ host effector cells (macrophage infiltration) in tumor tissue” value [9] was “massive influx”, the “influx of F4/80+ host effector cells (macrophage infiltration) in tumor tissue” value ([9]; listed as BI-505) was “significantly increased” and the tumor growth ([10]; 20 mg/kg twice weekly i.p., commencing one day after tumor cell inoculation) was “completely prevent tumor-growth”. For the same molecule, the survival ([10]; IgG B11 at 2 mg/kg, ten-fold lower dose than rituximab) was “complete survival”, the anti-tumor activity ([10]; dose of 0.2 mg/kg, dose titration) was “near maximal” and the “dose at which anti-tumor activity peaked” value ([10]; dose titration 0.02-20 mg/kg twice weekly i.p.) was 2 mg/kg.
